# In patent publication US20210198647A1, “Enhancers of Neurolysin Activity” (Texas Tech University System, priority 2018, published 2021):
# What was measured:
# mouse plasma proteins = test: rapid equilibrium dialysis (RED), mouse plasma, 500 ng/mL
# [1] = biological target: N-terminal polyhistidine tagged recombinant rat neurolysin (rat) (UniProt P42676); test: cell-based or functional assay
fu in Plasma (fraction unbound) (mouse plasma proteins),"formation of angiotensin-(1-7) from angiotensin I (20 µM), mass spectrometry, 100 µM modulator [1]","formation of bradykinin-(1-5) from bradykinin (20 µM), mass spectrometry, 100 µM modulator [1]","formation of neurotensin-(1-10) from neurotensin (20 µM), mass spectrometry, 100 µM modulator [1]",Substance
0.66,6 fold,2 fold,3 fold,"NlnA#1, NSC 374121, L-histidyl-L-tyrosine (peptide)"
0.93,,,,His-Trp (peptide)
,6 fold,2 fold,3 fold,"NlnA#2, NSC 523374, D,L-histidyl-D,L-histidine (peptide)"
